The supplement of paper PMC11316812
± gives the standard deviation of the averaged measurements.

Experiments:
hTERT-HMEC = experiment: percentage of EdU-negative (G0-arrested) nuclei per well, 72 h; higher = more G0 arrest; details: reference: sequence is the full UniProt precursor, the tested protein was the secreted form or ectodomain
MCF7 = experiment: as above; details: reference: sequence is the full UniProt precursor, the tested protein was the secreted form or ectodomain
[1] = protein concentration 0.01525 µM
[2] = protein concentration 0.1525 µM
[3] = protein concentration 0.0225 µM
[4] = protein concentration 0.0055 µM
[5] = protein concentration 0.01975 µM
[6] = protein concentration 0.1975 µM
[7] = protein concentration 0.03125 µM
[8] = protein concentration 0.3125 µM
[9] = protein concentration 0.0357143 µM
[10] = protein concentration 0.357143 µM
[11] = protein concentration 0.0135 µM
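Also: secreted proteins added to cultured cells, EdU pulse at the end, nuclei found by Hoechst imaging, EdU status from nuclear versus surrounding ring intensity ratio, PBS as neutral control.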

MWATLPLLCAGAWLLGVPVCGAAELCVNSLEKFHFKSWMSKHRKTYSTEEYHHRLQTFASNWRKINAHNNGNHTFKMALNQFSDMSFAEIKHKYLWSEPQNCSATKSNYLRGTGPYPPSVDWRKKGNFVSPVKNQGACGSCWTFSTTGALESAIAIATGKMLSLAEQQLVDCAQDFNNHGCQGGLPSQAFEYILYNKGIMGEDTYPYQGKDGYCKFQPGKAIGFVKDVANITIYDEEAMVEAVALYNPVSFAFEVTQDFMMYRTGIYSSTSCHKTPDKVNHAVLAVGYGEKNGIPYWIVKNSWGPQWGMNGYFLIERGKNMCGLAACASYPIPLV
percentage of EdU-negative (hTERT-HMEC; [1]): 5.31 ± 0.13% | percentage of EdU-negative (hTERT-HMEC; [2]): 8.87 ± 0.59% | percentage of EdU-negative (MCF7; [1]): 27 ± 2.4% | percentage of EdU-negative (MCF7; [2]): 29.3 ± 4.1%

MWCIVLFSLLAWVYAEPTMYGEILSPNYPQAYPSEVEKSWDIEVPEGYGIHLYFTHLDIELSENCAYDSVQIISGDTEEGRLCGQRSSNNPHSPIVEEFQVPYNKLQVIFKSDFSNEERFTGFAAYYVATDINECTDFVDVPCSHFCNNFIGGYFCSCPPEYFLHDDMKNCGVNCSGDVFTALIGEIASPNYPKPYPENSRCEYQIRLEKGFQVVVTLRREDFDVEAADSAGNCLDSLVFVAGDRQFGPYCGHGFPGPLNIETKSNALDIIFQTDLTGQKKGWKLRYHGDPMPCPKEDTPNSVWEPAKAKYVFRDVVQITCLDGFEVVEGRVGATSFYSTCQSNGKWSNSKLKCQPVDCGIPESIENGKVEDPESTLFGSVIRYTCEEPYYYMENGGGGEYHCAGNGSWVNEVLGPELPKCVPVCGVPREPFEEKQRIIGGSDADIKNFPWQVFFDNPWAGGALINEYWVLTAAHVVEGNREPTMYVGSTSVQTSRLAKSKMLTPEHVFIHPGWKLLEVPEGRTNFDNDIALVRLKDPVKMGPTVSPICLPGTSSDYNLMDGDLGLISGWGRTEKRDRAVRLKAARLPVAPLRKCKEVKVEKPTADAEAYVFTPNMICAGGEKGMDSCKGDSGGAFAVQDPNDKTKFYAAGLVSWGPQCGTYGLYTRVKNYVDWIMKTMQENSTPRED
percentage of EdU-negative (hTERT-HMEC; [3]): 4.97 ± 0.22% | percentage of EdU-negative (hTERT-HMEC; protein concentration 0.225 µM): 6.85 ± 3.7% | percentage of EdU-negative (MCF7; [3]): 23.9 ± 1.2% | percentage of EdU-negative (MCF7; protein concentration 0.225 µM): 24.2 ± 1.2%

MWDLVLSIALSVGCTGAVPLIQSRIVGGWECEKHSQPWQVAVYSHGWAHCGGVLVHPQWVLTAAHCLKKNSQVWLGRHNLFEPEDTGQRVPVSHSFPHPLYNMSLLKHQSLRPDEDSSHDLMLLRLSEPAKITDVVKVLGLPTQEPALGTTCYASGWGSIEPEEFLRPRSLQCVSLHLLSNDMCARAYSEKVTEFMLCAGLWTGGKDTCGGDSGGPLVCNGVLQGITSWGPEPCALPEKPAVYTKVVHYRKWIKDTIAANP
percentage of EdU-negative (hTERT-HMEC; [3]): 4.38 ± 0.36% | percentage of EdU-negative (hTERT-HMEC; protein concentration 0.225 µM): 5.65 ± 0.28% | percentage of EdU-negative (MCF7; [3]): 23.8 ± 1.7% | percentage of EdU-negative (MCF7; protein concentration 0.225 µM): 24.8 ± 1.2%

MWGLKVLLLPVVSFALYPEEILDTHWELWKKTHRKQYNNKVDEISRRLIWEKNLKYISIHNLEASLGVHTYELAMNHLGDMTSEEVVQKMTGLKVPLSHSRSNDTLYIPEWEGRAPDSVDYRKKGYVTPVKNQGQCGSCWAFSSVGALEGQLKKKTGKLLNLSPQNLVDCVSENDGCGGGYMTNAFQYVQKNRGIDSEDAYPYVGQEESCMYNPTGKAAKCRGYREIPEGNEKALKRAVARVGPVSVAIDASLTSFQFYSKGVYYDESCNSDNLNHAVLAVGYGIQKGNKHWIIKNSWGENWGNKGYILMARNKNNACGIANLASFPKM
percentage of EdU-negative (hTERT-HMEC; [4]): 4.75 ± 0.94% | percentage of EdU-negative (hTERT-HMEC; protein concentration 0.055 µM): 4.78 ± 0.37% | percentage of EdU-negative (MCF7; [4]): 25.3 ± 2.9% | percentage of EdU-negative (MCF7; protein concentration 0.055 µM): 27.4 ± 1.2%

MWGLLLALAAFAPAVGPALGAPRNSVLGLAQPGTTKVPGSTPALHSSPAQPPAETANGTSEQHVRIRVIKKKKVIMKKRKKLTLTRPTPLVTAGPLVTPTPAGTLDPAEKQETGCPPLGLESLRVSDSRLEASSSQSFGLGPHRGRLNIQSGLEDGDLYDGAWCAEEQDADPWFQVDAGHPTRFSGVITQGRNSVWRYDWVTSYKVQFSNDSRTWWGSRNHSSGMDAVFPANSDPETPVLNLLPEPQVARFIRLLPQTWLQGGAPCLRAEILACPVSDPNDLFLEAPASGSSDPLDFQHHNYKAMRKLMKQVQEQCPNITRIYSIGKSYQGLKLYVMEMSDKPGEHELGEPEVRYVAGMHGNEALGRELLLLLMQFLCHEFLRGNPRVTRLLSEMRIHLLPSMNPDGYEIAYHRGSELVGWAEGRWNNQSIDLNHNFADLNTPLWEAQDDGKVPHIVPNHHLPLPTYYTLPNATVAPETRAVIKWMKRIPFVLSANLHGGELVVSYPFDMTRTPWAARELTPTPDDAVFRWLSTVYAGSNLAMQDTSRRPCHSQDFSVHGNIINGADWHTVPGSMNDFSYLHTNCFEVTVELSCDKFPHENELPQEWENNKDALLTYLEQVRMGIAGVVRDKDTELGIADAVIAVDGINHDVTTAWGGDYWRLLTPGDYMVTASAEGYHSVTRNCRVTFEEGPFPCNFVLTKTPKQRLRELLAAGAKVPPDLRRRLERLRGQKD [Q96SM3]
percentage of EdU-negative (hTERT-HMEC; [5]): 5.64 ± 1.2% | percentage of EdU-negative (hTERT-HMEC; [6]): 5.93 ± 0.071% | percentage of EdU-negative (MCF7; [5]): 26.1 ± 3.2% | percentage of EdU-negative (MCF7; [6]): 28.5 ± 1.1%

MWKRWLALALALVAVAWVRAEEELRSKSKICANVFCGAGRECAVTEKGEPTCLCIEQCKPHKRPVCGSNGKTYLNHCELHRDACLTGSKIQVDYDGHCKEKKSVSPSASPVVCYQSNRDELRRRIIQWLEAEIIPDGWFSKGSNYSEILDKYFKNFDNGDSRLDSSEFLKFVEQNETAINITTYPDQENNKLLRGLCVDALIELSDENADWKLSFQEFLKCLNPSFNPPEKKCALEDETYADGAETEVDCNRCVCACGNWVCTAMTCDGKNQKGAQTQTEEEMTRYVQELQKHQETAEKTKRVSTKEI
percentage of EdU-negative (hTERT-HMEC; [7]): 4.68 ± 0.16% | percentage of EdU-negative (hTERT-HMEC; [8]): 5.53 ± 0.92% | percentage of EdU-negative (MCF7; [7]): 25.7 ± 0.72% | percentage of EdU-negative (MCF7; [8]): 26.2 ± 3.6%

MWLGRRALCALVLLLACASLGLLYASTRDAPGLRLPLAPWAPPQSPRRPELPDLAPEPRYAHIPVRIKEQVVGLLAWNNCSCESSGGGLPLPFQKQVRAIDLTKAFDPAELRAASATREQEFQAFLSRSQSPADQLLIAPANSPLQYPLQGVEVQPLRSILVPGLSLQAASGQEVYQVNLTASLGTWDVAGEVTGVTLTGEGQADLTLVSPGLDQLNRQLQLVTYSSRSYQTNTADTVRFSTEGHEAAFTIRIRHPPNPRLYPPGSLPQGAQYNISALVTIATKTFLRYDRLRALITSIRRFYPTVTVVIADDSDKPERVSGPYVEHYLMPFGKGWFAGRNLAVSQVTTKYVLWVDDDFVFTARTRLERLVDVLERTPLDLVGGAVREISGFATTYRQLLSVEPGAPGLGNCLRQRRGFHHELVGFPGCVVTDGVVNFFLARTDKVREVGFDPRLSRVAHLEFFLDGLGSLRVGSCSDVVVDHASKLKLPWTSRDAGAETYARYRYPGSLDESQMAKHRLLFFKHRLQCMTSQ
percentage of EdU-negative (hTERT-HMEC; [7]): 5.346 ± 0.02% | percentage of EdU-negative (hTERT-HMEC; [8]): 5.55 ± 0.9% | percentage of EdU-negative (MCF7; [7]): 24.7 ± 5.6% | percentage of EdU-negative (MCF7; [8]): 27 ± 3.4%

MWLLLTLSFLLASTAAQDGDKLLEGDECAPHSQPWQVALYERGRFNCGASLISPHWVLSAAHCQSRFMRVRLGEHNLRKRDGPEQLRTTSRVIPHPRYEARSHRNDIMLLRLVQPARLNPQVRPAVLPTRCPHPGEACVVSGWGLVSHNEPGTAGSPRSQVSLPDTLHCANISIISDTSCDKSYPGRLTNTMVCAGAEGRGAESCEGDSGGPLVCGGILQGIVSWGDVPCDNTTKPGVYTKVCHYLEWIRETMKRN [Q9H2R5]
percentage of EdU-negative (hTERT-HMEC; [3]): 5.58 ± 0.041% | percentage of EdU-negative (hTERT-HMEC; protein concentration 0.225 µM): 5.86 ± 1.2% | percentage of EdU-negative (MCF7; [3]): 22.4 ± 2% | percentage of EdU-negative (MCF7; protein concentration 0.225 µM): 25.76 ± 0.13%

MWLLPALLLLCLSGCLSLKGPGSVTGTAGDSLTVWCQYESMYKGYNKYWCRGQYDTSCESIVETKGEEKVERNGRVSIRDHPEALAFTVTMQNLNEDDAGSYWCKIQTVWVLDSWSRDPSDLVRVYVSPAITTPRRTTHPATPPIFLVVNPGRNLSTGEVLTQNSGFRLSSPHFLLVVLLKLPLLLSMLGAVFWVNRPQWAPPGR [Q496F6]
percentage of EdU-negative (hTERT-HMEC; [3]): 5.54 ± 0.7% | percentage of EdU-negative (hTERT-HMEC; protein concentration 0.225 µM): 5.97 ± 1.6% | percentage of EdU-negative (MCF7; [3]): 23.3 ± 1.9% | percentage of EdU-negative (MCF7; protein concentration 0.225 µM): 26.6 ± 0.81%

MWLLVSVILISRISSVGGEAMFCDFPKINHGILYDEEKYKPFSQVPTGEVFYYSCEYNFVSPSKSFWTRITCAEEGWSPTPKCLRLCFFPFVENGHSESSGQTHLEGDTVQIICNTGYRLQNNENNISCVERGWSTPPKCRSTISAEKCGPPPPIDNGDITSFLLSVYAPGSSVEYQCQNLYQLEGNNQITCRNGQWSEPPKCLDPCVISQEIMEKYNIKLKWTNQQKLYSRTGDIVEFVCKSGYHPTKSHSFRAMCQNGKLVYPSCEEK
percentage of EdU-negative (hTERT-HMEC; [9]): 5.7 ± 0.61% | percentage of EdU-negative (hTERT-HMEC; [10]): 17.5 ± 3.6% | percentage of EdU-negative (MCF7; [9]): 26.5 ± 2.9% | percentage of EdU-negative (MCF7; [10]): 27.9 ± 1.9%

MWLLVSVILISRISSVGGEATFCDFPKINHGILYDEEKYKPFSQVPTGEVFYYSCEYNFVSPSKSFWTRITCTEEGWSPTPKCLRLCFFPFVENGHSESSGQTHLEGDTVQIICNTGYRLQNNENNISCVERGWSTPPKCRSTDTSCVNPPTVQNAHILSRQMSKYPSGERVRYECRSPYEMFGDEEVMCLNGNWTEPPQCKDSTGKCGPPPPIDNGDITSFPLSVYAPASSVEYQCQNLYQLEGNKRITCRNGQWSEPPKCLHPCVISREIMENYNIALRWTAKQKLYLRTGESAEFVCKRGYRLSSRSHTLRTTCWDGKLEYPTCAKR
percentage of EdU-negative (hTERT-HMEC; [11]): 5.26 ± 0.45% | percentage of EdU-negative (hTERT-HMEC; protein concentration 0.135 µM): 5.53 ± 0.48% | percentage of EdU-negative (MCF7; [11]): 25.1 ± 1.9% | percentage of EdU-negative (MCF7; protein concentration 0.135 µM): 25.3 ± 0.89%
